Results published in PMC6748103, “SPOP suppresses prostate cancer through regulation of CYCLIN E1 stability” (Cell Death and Differentiation, 2018).

Biological target: T1, GST-CCNE1 (UniProt P24864 1-410)
T1 construct: CYCLIN E1 (CCNE1), expressed in bacteria; also called GST-tagged CCEN1; GST-tagged CYCLIN E1
Test: pull-down; GST pull-down; His-SPOP and GST-CCNE1 expressed in bacteria and affinity purified
Conditions: both partners purified

T1 sequence (P24864 whole entry): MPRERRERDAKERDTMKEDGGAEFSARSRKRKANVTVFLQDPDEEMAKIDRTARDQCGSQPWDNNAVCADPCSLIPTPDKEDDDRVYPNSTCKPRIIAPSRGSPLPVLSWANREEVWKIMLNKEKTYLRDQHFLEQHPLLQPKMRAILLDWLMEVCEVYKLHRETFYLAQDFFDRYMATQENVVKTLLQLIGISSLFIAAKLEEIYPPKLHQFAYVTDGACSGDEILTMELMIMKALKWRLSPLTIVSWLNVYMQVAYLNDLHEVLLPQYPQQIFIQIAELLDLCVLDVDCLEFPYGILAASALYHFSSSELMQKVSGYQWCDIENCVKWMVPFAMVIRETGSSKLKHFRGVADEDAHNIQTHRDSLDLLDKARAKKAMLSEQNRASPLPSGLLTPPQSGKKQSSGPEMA

- binding result: binds
B1: His-tagged SPOP (natural protein, UniProt O43791 1-374, looked up)
chain: MSRVPSPPPPAEMSSGPVAESWCYTQIKVVKFSYMWTINNFSFCREEMGEVIKSSTFSSGANDKLKWCLRVNPKGLDEESKDYLSLYLLLVSCPKSEVRAKFKFSILNAKGEETKAMESQRAYRFVQGKDWGFKKFIRRDFLLDEANGLLPDDKLTLFCEVSVVQDSVNISGQNTMNMVKVPECRLADELGGLWENSRFTDCCLCVAGQEFQAHKAILAARSPVFSAMFEHEMEESKKNRVEINDVEPEVFKEMMCFIYTGKAPNLDKMADDLLAAADKYALERLKVMCEDALCSNLSVENAAEILILADLHSADQLKTQAVDFINYHASDVLETSGWKSMVVSHPHLVAEAYRSLASAQCPFLGPPRKRLKQS
notes: SPOP, expressed in bacteria; also called His-SPOP
